Tests used:
[1] = target: T1, mouse 5T4 expressed on CHO-S cells (CHO-m5T4 cells) (mouse, UniProt Q9Z0L0 32-361); assay: flow cytometry, CHO-m5T4 cells
T1 sequence: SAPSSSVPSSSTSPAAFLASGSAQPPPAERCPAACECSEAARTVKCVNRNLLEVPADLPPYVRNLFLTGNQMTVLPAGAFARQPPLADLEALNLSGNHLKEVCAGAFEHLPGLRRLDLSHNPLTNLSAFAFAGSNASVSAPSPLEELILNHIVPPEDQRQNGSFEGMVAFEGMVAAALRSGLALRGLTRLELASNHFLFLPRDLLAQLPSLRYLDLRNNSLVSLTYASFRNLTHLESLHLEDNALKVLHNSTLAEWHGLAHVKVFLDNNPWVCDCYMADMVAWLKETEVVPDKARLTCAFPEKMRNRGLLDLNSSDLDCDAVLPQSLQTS
Protocol: (§1) CHO-h5T4 cells, CHO-m5T4 cells, CHO-fas5T4 cells or CHO-d5T4 cells were transferred to a 96-well plate at a density of 2×10⁵ cells/well respectively. The anti-5T4 antibodies were added to the 96-well plate, and incubated at 4° C. for 30 min. Then, the cells were incubated with the secondary antibody anti-hlgG-Fc-Alex Flour 647 (RL1-H) (Jackson ImmunoResearch Laboratories, Inc., Cat #: 109-606-170) at 4° C. in the dark for 15 minutes before flow cytometry analysis.

[2] = target: T2, 5T4 on NCI-H226 cells, NCI-H2030 cells and HCC827 cells (UniProt Q13641 32-420, limits assumed); assay: flow cytometry on HCC827 cells, Alexa Fluor 647 anti-human IgG Fc secondary antibody, MFI
T2 construct: whole, on cells
T2 sequence (looked up): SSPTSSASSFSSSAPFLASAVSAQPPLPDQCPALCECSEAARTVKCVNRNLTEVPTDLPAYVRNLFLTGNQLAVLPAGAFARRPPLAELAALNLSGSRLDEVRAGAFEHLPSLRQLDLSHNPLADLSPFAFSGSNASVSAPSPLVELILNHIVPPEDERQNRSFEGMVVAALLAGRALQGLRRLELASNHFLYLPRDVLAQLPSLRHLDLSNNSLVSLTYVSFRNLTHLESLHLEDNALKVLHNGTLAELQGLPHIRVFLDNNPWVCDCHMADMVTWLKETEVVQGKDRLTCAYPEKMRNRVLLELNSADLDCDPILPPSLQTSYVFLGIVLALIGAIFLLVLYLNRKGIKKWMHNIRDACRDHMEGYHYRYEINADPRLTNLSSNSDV
Protocol: NCI-H226 cells, NCI-H2030 cells or HCC827 cells were plated in a 96-well plate at a density of 2×10⁵ cells/well. Serially diluted purified anti-5T4 antibody 32G1 or the positive control PF06263507 analog-SI (maximum concentration: 20 μg/mL, 2-fold dilutions, 12 gradients) were added to each well and were incubated at 4° C. for 30 minutes. Then, after one wash with PBS, the cells were incubated with the secondary antibody Alexa Fluor® 647 anti human IgG Fcγ (Jackson ImmunoResearch Laboratories, Inc., Cat #: 109-606-170) at 4° C. for 15 minutes before flow cytometry analysis.
The cells were collected, and the mean fluorescence intensity (MFI) was determined.

h5T4-His protein [3] = target: T3, h5T4-His protein (human, UniProt Q13641 32-355, limits assumed); assay: epitope binding assay, h5T4-His captured; binder = analyte 2; competitor (analyte 1): 32G8
T3 construct: also called His-tagged human 5T4 protein; not shown: His tag
T3 sequence (looked up): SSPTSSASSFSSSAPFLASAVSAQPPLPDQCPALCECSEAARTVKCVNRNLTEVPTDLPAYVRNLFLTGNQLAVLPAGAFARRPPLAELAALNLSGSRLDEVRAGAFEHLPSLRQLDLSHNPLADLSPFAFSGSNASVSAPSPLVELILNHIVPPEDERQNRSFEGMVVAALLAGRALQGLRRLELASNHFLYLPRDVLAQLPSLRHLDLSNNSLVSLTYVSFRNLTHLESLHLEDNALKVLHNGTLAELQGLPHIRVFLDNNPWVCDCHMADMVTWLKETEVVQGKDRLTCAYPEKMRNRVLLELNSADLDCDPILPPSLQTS
Protocol: (§2) Epitope binding assays were performed using ForteBio Octet system to determine whether two anti-5T4 antibodies target the same or overlapping epitopes. 1×HBS-EP+buffer (10 mM 4-(2-hydroxyethyl)-1-piperazineethanesulfonic acid (HEPES), 150 mM NaCl, 3 mM ethylenediaminetetraacetic acid (EDTA) and 0.05% P20, pH7.4) diluted from HBS-EP+buffer (10×) was used as the running buffer throughout the experiment. About 50 RU of h5T4-His protein was captured at a flow rate of 10 μL/min, and 200 nM of the tested antibody was injected at a flow rate of 30 μL/min to bind the ligand. Another comparison antibody was injected under the same conditions to determine whether the binding of different antibodies interfered with each other. The binding time was 180 s for each antibody.
(§3) The binding value of each antibody was obtained using Data Analysis HT 12.0. To quantify the interference of one antibody binding to another, a binding ratio was calculated to compare each pair of antibodies. The binding ratio is defined as the binding value of the second antibody (analyte 2), divided by the binding value of the first antibody (analyte 1). […] In general, antibody pairs that interfere with each other have the same or overlapping epitopes.

h5T4-His protein [4] = target: T3, h5T4-His protein; assay: epitope binding assay, h5T4-His captured; binder = analyte 2; competitor (analyte 1): 32G1
Protocol: as §2, §3

h5T4-His protein [5] = target: T3, h5T4-His protein; assay: epitope binding assay, h5T4-His captured; binder = analyte 2; competitor (analyte 1): 35C6
Protocol: as §2, §3

[6] = target: T4, human 5T4 expressed on CHO-S cells (CHO-h5T4 cells) (human, UniProt Q13641 32-355); assay: flow cytometry, CHO-h5T4 cells
T4 sequence: T3 sequence (looked up)
Protocol: as §1

[7] = target: T5, dog 5T4 expressed on CHO-S cells (CHO-d5T4 cells) (dog); assay: flow cytometry, CHO-d5T4 cells
T5 chain: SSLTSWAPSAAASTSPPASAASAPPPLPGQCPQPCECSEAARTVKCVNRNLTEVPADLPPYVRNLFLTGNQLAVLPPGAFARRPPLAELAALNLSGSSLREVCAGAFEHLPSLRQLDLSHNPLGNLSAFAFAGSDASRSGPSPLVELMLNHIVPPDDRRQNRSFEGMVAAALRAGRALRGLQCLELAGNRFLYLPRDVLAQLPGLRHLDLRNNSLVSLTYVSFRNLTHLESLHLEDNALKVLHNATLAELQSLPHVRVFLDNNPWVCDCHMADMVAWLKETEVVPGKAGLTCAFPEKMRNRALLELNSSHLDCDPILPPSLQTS
Protocol: as §1

Percentage of Positive Cells [1]: 27.1%
EC50 (read off the curve) [2]: ~0.8 µg/mL
binding ratio (h5T4-His protein [3]): 0.82
binding ratio (h5T4-His protein [4]): 0.01
binding ratio (h5T4-His protein [5]): 1.03
Percentage of Positive Cells [6]: 56.5%
Percentage of Positive Cells [7]: 56.3%
B1: 32G1 (antibody, V domains shown)
VH: QVQLVQSGGGLVKPGGSLRLSCVASGFTFSDYYMNWVRQAPGKGLEWISYVGTESIYTYYADTVKGRFTISRDNAKNSLYLQMNSLRAEDTALYYCARARDYNLYGMDVWGQGTTVTVSS
VL: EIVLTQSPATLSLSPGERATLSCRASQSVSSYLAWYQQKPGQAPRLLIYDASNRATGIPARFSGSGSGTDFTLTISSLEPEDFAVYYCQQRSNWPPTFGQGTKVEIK
notes: also called anti-5T4 antibody 32G1
